This note sets out measurements from patent US6998239B1, “Method for identifying a modulator of the binding of CCX CKR polypeptide to a chemokine” (ChemoCentryx, Inc., priority 1999, dated 2006).

“Also recorded” adds a separate entry of the source.

For assay [1], the target named is T1, CCX CKR (Homo sapiens, UniProt Q9NPB9).
T1 construct: Full length CCX CKR expression constructs were made in pIRESpuro expression vector; expressed in transfected cells
T1 sequence (Q9NPB9 1-350): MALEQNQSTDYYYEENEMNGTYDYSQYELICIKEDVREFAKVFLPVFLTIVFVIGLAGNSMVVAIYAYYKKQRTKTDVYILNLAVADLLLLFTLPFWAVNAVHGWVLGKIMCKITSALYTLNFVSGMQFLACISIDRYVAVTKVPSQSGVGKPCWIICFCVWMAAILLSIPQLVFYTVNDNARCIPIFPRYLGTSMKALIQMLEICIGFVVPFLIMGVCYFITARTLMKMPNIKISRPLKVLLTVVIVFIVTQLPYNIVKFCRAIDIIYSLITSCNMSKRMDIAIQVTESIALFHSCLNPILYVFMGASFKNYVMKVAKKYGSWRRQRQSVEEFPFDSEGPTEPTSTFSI
The assay is described as follows: Small molecule screen: inhibition of 125I-ELC binding to HEK293 cells expressing CCX CKR. As to conditions: for Effect on binding between ELC and CCX CKR: 125I-ELC ~25-100 pM, compounds 1-5 μg/mL, ~3 hours at 4° C., HEK293 Flag-CCX CKR cells; for Type of modulator of CCX CKR function: Table 1, class given beside the label. As to the method: Source plates of chemical libraries were obtained from commercial vendors and contained individual compounds at 5 mg/mL in DMSO, or in some instances, at 1 mg/mL. From these, multiple compound plates containing 10 compounds in each well were made, and these were diluted in 20% DMSO to a concentration of 50 μg/mL (10 μg/mL for those beginning at 1 mg/mL). An aliquot of 20 μL of each mixture was put into the test plates, which were stored frozen until use.
HEK293 cells stably expressing the M1 flag epitope-tagged CCX CKR (described in Example 3, supra) were cultured in DMEM-10% FBS, and harvested when the concentration was between 0.5-1.0×10^6 cells/mL. The cells were centrifuged and resuspended in assay buffer (20 mM HEPES, 80 mM NaCl, 1 mM CaCl2, 5 mM MgCl2, and with 0.2% bovine serum albumin, pH 7.4) to a concentration of 5.6×10^6 cells/mL.
Using a Multi-Probe automated system, 0.09 mL of cells was added to each well of the assay test plates containing the compounds, followed by 0.09 mL of ^125I-MIPβ3/ELC (from Amersham Pharmacia Biotech) diluted in assay buffer (final concentration ˜25-100 pM, with ˜50,000 cpm per well). The final concentration of the compounds was 1-5 μg/mL each. The plates were sealed and incubated for approximately 3 hours at 4° C. on a shaker platform. The assay plates were harvested using Packard GP/B filter plates, pre-soaked in PEI solution, on the vacuum harvest apparatus. Scintillation fluid (50 μL) was added to each of the wells, the plates were sealed and counted in a Top Count scintillation counter. Control wells contained either diluent only (for total counts) or excess ELC (1 μg/mL, for non-specific binding) and were used to calculate the percent of total inhibition of ELC binding for each set of compounds.

In assay [2] the target is T1, CCX CKR. Kind of assay: Ligand binding fingerprint: displacement of 125I-ELC from CCX CKR stable transfectants by cold chemokines. As to conditions: cold competitor 200 nM; human and murine ELC, SLC, TECK; comparable with 125I-TECK. An excerpt:
In one embodiment, binding is detected as described by Dairaghi et al., 1997, J. Biol. Chem. 272:28206-209 (incorporated by reference in its entirety for all purposes) substituting CCX CKR transfectants for the CCR3 transfectants). In one embodiment, binding is detected using the filter based technique described by Dairaghi et al., 1999, J. Biol. Chem. 274:2156 (incorporated by reference in its entirety for all purposes), e.g., as shown in FIG. 4. Briefly, this technology employs expanded, efficiency-maximized radioligand binding utilizing filtration protocols. […] Filters are washed twice (25 mM HEPES, 500 mM NaCl, 1 mM CaCl25 mM MgCl2, adjusted to pH 7.1) and scintillant (e.g., MicroScint 20; 50 μl) is added to dried filters and counted (e.g., using a Packard Topcount scintillation counter). The competition dose-response curves is analyzed by standard methods to determine IC50 values (e.g., using GraphPad Prism software (San Diego, Calif.)). […]
In order to rapidly and thoroughly define a given chemokine receptor's ligand binding fingerprint, we have established an approach to comprehensively profile chemokine receptors using a large array of purified chemokines and chemokine variants. […] Employing radioligand binding of ^125I-labeled-ELC or ^125I-TECK to CCX CKR stable transfectants, chemokine specificity for the new receptor was determined. […]

Assay [3] addresses T1, CCX CKR. Kind of assay: Radioligand binding competition with Scatchard transformation (binding constants). As to conditions: for Affinity class of CCX CKR ligands (summary of Examples 4-6): summary statement. An excerpt:
In one embodiment, binding is detected as described by Dairaghi et al., 1997, J. Biol. Chem. 272:28206-209 (incorporated by reference in its entirety for all purposes) substituting CCX CKR transfectants for the CCR3 transfectants). In one embodiment, binding is detected using the filter based technique described by Dairaghi et al., 1999, J. Biol. Chem. 274:2156 (incorporated by reference in its entirety for all purposes), e.g., as shown in FIG. 4. Briefly, this technology employs expanded, efficiency-maximized radioligand binding utilizing filtration protocols. In these assays, 1×10^5 CCXCKR-293 HEK cells are incubated with […] (MlP3beta) (final concentration of ˜0.05 nM) in the presence of unlabeled chemokine for 3 h at 4° C. in 25 mM HEPES, 140 mM NaCl, 1 mM CaCl2, 5 mM MgCl2, and 0.2% bovine serum albumin, adjusted to pH 7.1. Reactions were aspirated onto PEI-treated GF/B glass filters using a cell harvester (Packard). Filters are washed twice (25 mM HEPES, 500 mM NaCl, 1 mM CaCl25 mM MgCl2, adjusted to pH 7.1) and scintillant (e.g., MicroScint 20; 50 μl) is added to dried filters and counted (e.g., using a Packard Topcount scintillation counter). The competition dose-response curves is analyzed by standard methods to determine IC50 values (e.g., using GraphPad Prism software (San Diego, Calif.)). Additionally, a Scatchard transformation can be used to estimate the receptor sites per cell (e.g., using WaveMetrics Igor software (Lake Oswego, Oreg.)).
Binding analysis was carried out using efficiency-maximized radioligand binding utilizing filtration protocols designated “Displace Max” (Dairaghi et al., 1999, J Biol. Chem. 274:21569). […]
The binding interactions identified in the primary screen were examined quantitatively by extensive radioligand binding competition to CCX CKR stable transfectants and Scatchard transformation of the displacement data (FIG. 4B). […]

Assay [4] concerns the target T1, CCX CKR. Kind of assay: Preliminary chemotaxis analysis of CCX CKR transfectants. It is filed as cell-based. As to conditions: preliminary chemotaxis analyses, not shown.
Assay [5] concerns the target T1, CCX CKR. The assay is described as follows: Homologous competition binding of radiolabeled chemokine on HEK293-CCX CKR cells. From the text:
Furthermore ELC-SK mediated adhesion was abolished in the presence of soluble native ELC as a competitor (FIG. 3A, top row). […] Moreover, radiolabeled ELC was used in a traditional homologous competition assay in the presence of increasing concentrations of unlabeled ELC. […] Taken together, the stalkokine-based adhesion and radiolabeled ligand binding/homologous competition assays indicate that CCX CKR is a new chemokine receptor that bound a novel compliment of chemokines.

Assay [6] deals with T1, CCX CKR. Kind of assay: Adhesion of HEK293-CCX CKR cells to immobilized ELC-stalkokine and competition by soluble chemokines. It counts as cell-based. As to conditions: 5-10 ug/ml soluble recombinant chemokine as competitor. From the text:
“Stalkokine” technology was used to :identify the chemokines bound by the CCX CKR. Briefly, immobilized native chemokines alone are incapable of capturing cells bearing cognate receptors (Imai et al., 1997, Cell 91:521). We have developed non-native chemokine structures, stalkokines, comprising chemokine moieties engineered as N-terminal attachments to extended modified mucins (Bazan et al., 1997, Nature 385:640). In one embodiment, stalkokines, harvested in the supernatants of HEK293 cells after transient transfection, are anchored to solid substrates via antibodies against carrier domains (e.g. poly-His epitopes) engineered to the carboxyl terminus, leaving the chemokine domain free to interact with candidate orphan receptors.
To determine ligand binding to CCX CKR, HEK293-CCX CKR cells were used to interrogate chemokine ‘stalkokines’ (SK), i.e., molecules in which discrete chemokine domains were engineered to be tethered to the end of an extended stalk structure. […] In all cases, nonadherent cells were removed by washing in PBS; remaining adherent cells were fixed with 1% glutaraldehyde, photoimaged and counted. […]

The target of assay [7] is T1, CCX CKR. Kind of assay: Ligand induced internalization of CCX CKR in 293 F-CCR10 cells (FACS, anti-Flag). It counts as cell-based. As to conditions: 100 nM chemokine, 37° C., 15 or 45 minutes. Here is the method:
293 cells transfected with the Flag-CCX CKR fusion plasmid (i.e., “293 F-CCR10 cells;” see Example 3) were incubated at 37° C. with varying concentrations of chemokines (ELC, SLC, TECK, murine CTACK and MCP4) for 15 or 45 minutes. Following incubation, the cells were washed and fixed with 3% paraformaldehyde for 15 minutes on ice. The cells were stained with anti-Flag M1 antibody, followed by a PE-conjugated anti-mouse secondary antibody. FACS analysis were then carried out to determine surface expression of the receptor.
Results: A reduction in antibody binding in the presence of ligand is an indication of ligand-induced internalization of the receptor.

Consider `CCC(c1nc2ccccc2c(=O)n1C)N(Cc1ccco1)C(=O)Nc1cccc(C(F)(F)F)c1` (centres unmarked) [Compound III], for which, in assay [1], the “Effect on binding between ELC and CCX CKR” value is listed as “enhance binding”; the “Type of modulator of CCX CKR function” value is “Com- pound III (agonist)”.

Turning to `CC1CCCCN1CCCN(Cc1ccc(OCc2ccccc2)cc1)C(=O)Nc1ccc(Cl)c(Cl)c1` (centres unmarked) [Compound I], in assay [1], the “Effect on binding between ELC and CCX CKR” value was “inhibit binding”; the “Type of modulator of CCX CKR function” value was “Com- pound I (antago- nist)”.

For the molecule BLC: CXC chemokine BLC, in assay [2], the “Binding to CCX CKR by displacement of 125I-labeled ELC” value is reported as “lower affinity”. The “Affinity for CCX CKR in multipoint competition, in words” value in assay [3] (competition against 125I-ELC) was “of lesser affinity, also bound well”. Besides, in assay [3], the “Affinity class of CCX CKR ligands (summary of Examples 4-6)” value is listed as “lower affinity”.

“ELC: EBII ligand chemokine, recombinant chemokine from R&D Systems”: the “Migration of CCX CKR transfectants in response to chemokine” value in assay [4] is reported as “moderate migration”. The “Binding of radiolabeled ELC, homologous competition with unlabeled ELC” value in assay [5] is on record as “significant binding”. In addition, the “Effect of soluble chemokine on ELC-SK mediated adhesion of HEK293-CCX CKR cells” value in assay [6] is given as “ablation of adhesion; also recorded: abolished”. Further, in assay [7], the “Internalization of the receptor” value is recorded as “Internalization of the receptor was observed”. Moreover, the “Binding to CCX CKR by displacement of 125I-labeled ELC” value in assay [2] is “bound well”. Besides, the “Affinity class of CCX CKR ligands (summary of Examples 4-6)” value in assay [3] is “high affinity”.

For the molecule “MCP-3: soluble chemokine, representative of non-competing chemokines”, the “Effect of soluble chemokine on ELC-SK mediated adhesion of HEK293-CCX CKR cells” value in assay [6] is “no diminution in adhesion and not”.

`CC1CCCCN1CCCN(Cc1ccc(OCc2ccccc2)cc1)C(=O)NC12CCCC3CCC1CC2C3` (centres unmarked) [Compound II]: in assay [1], the “Effect on binding between ELC and CCX CKR” value is on record as “inhibit binding”; the “Type of modulator of CCX CKR function” value is “Com- pound II (antago- nist)”.

For the molecule “MCP4: chemokine used as non-binding control in internalization assay”, in assay [7], the “Internalization of the receptor” value is recorded as “did not cause internalization”.
